This assay addresses IL4 receptor on the gibbon cell line MLA (gibbon). Nature of the assay: displacement of 125I-IL4 (83 pM added) from gibbon MLA cells.

Among the data in patent EP0730609B1 are IC50 values, retold here.

pIC50: −log10 of the molar value.

Turning to “recombinant human IL4 (E. coli, non-glycosylated) (from UniProt P05112 25-153) (ligand)”, the pIC50 (usually the negative decadic logarithm of the IC50, by convention in mol/L) is 10.66.
